The text below walks through data of US20240368617A1, “NPR1 VARIANT TO ENHANCE PLANT RESISTANCE TO BIOTIC AND ABIOTIC STRESSES AND METHOD THEREOF” (Duke University, published 2024).

Where a chain is given by its changes, count along the chain named. Numbers in names are those of the source.

One data set deals with T1, npr1(dim)-HA (Arabidopsis thaliana, UniProt P93002 1-593).
T1 construct: also called L49D/F53D/V56D/V83K; not shown: C-terminal HA tag from vector pLN462
T1 chain: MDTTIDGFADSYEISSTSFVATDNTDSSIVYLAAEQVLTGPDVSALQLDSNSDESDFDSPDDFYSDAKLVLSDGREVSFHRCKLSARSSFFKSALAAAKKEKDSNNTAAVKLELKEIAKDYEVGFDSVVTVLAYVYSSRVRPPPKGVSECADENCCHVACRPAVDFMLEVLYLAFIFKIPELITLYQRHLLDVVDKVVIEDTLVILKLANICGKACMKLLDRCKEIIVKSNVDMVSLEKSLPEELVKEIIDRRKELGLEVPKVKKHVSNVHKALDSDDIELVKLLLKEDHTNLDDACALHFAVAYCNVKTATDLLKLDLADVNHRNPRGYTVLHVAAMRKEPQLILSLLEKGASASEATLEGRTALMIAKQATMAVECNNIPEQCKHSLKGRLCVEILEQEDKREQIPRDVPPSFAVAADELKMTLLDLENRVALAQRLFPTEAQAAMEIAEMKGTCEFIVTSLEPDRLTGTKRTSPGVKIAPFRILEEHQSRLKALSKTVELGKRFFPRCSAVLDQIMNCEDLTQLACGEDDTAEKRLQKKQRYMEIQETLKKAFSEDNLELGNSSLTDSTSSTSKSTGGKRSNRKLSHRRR
In words: co-immunoprecipitation of GFP- and HA-fused proteins with anti-HA beads, N. benthamiana, with and without SA. Here is the method: (§1) For plant transformations, the Agrobacterium tumefaciens strain GV3101 was transformed with plant binary vectors carrying the indicated transgenes. For stable expression in Arabidopsis, a floral dipping method was used. For transient expression in N. benthamiana, the Agrobacterium carrying the indicated construct was cultured over-night at 28° C. in LB broth medium supplemented with appropriate antibiotics: spectinomycin (100 μg ml-1), kanamycin (50 μg ml-1), gentamycin (50 μg ml-1) and rifampicin (25 μg ml-1). The obtained culture was re-inoculated at 1:10 into fresh growth medium with antibiotics and grown for another 4 h. Cells were then centrifuged at 1,600g for 10 min, and inoculum was prepared by resuspending cells to an OD600 of 1 in double-distilled water containing 200 μM acetosyringone (Sigma-Aldrich). The co-expression assays were per-formed with a 1:1 mixture of Agrobacteria inoculums. The inoculum was pressure-infiltrated into N. benthamiana leaves at the abaxial side using 1 ml syringe without the needle.
Recombinant protein analysis, co-immunoprecipitation and cell-free oligomerization were performed using total protein extracts from the transient expression assay in N. benthamiana as described previously. […]

Data set [1] concerns the molecule itself. In words: size-exclusion chromatography (later elution than WT) and low-resolution cryo-EM (single-wing shape). (SEC sorts molecules by how far they enter the pores of the column.)
For a further data set, the target named is T2, npr1(L284D)-HA (Arabidopsis thaliana, UniProt P93002 1-593).
T2 construct: not shown: C-terminal HA tag from vector pLN462
T2 sequence: T1 chain with D49L, D53F, D56V, K83V, L284D
The experiment in a line: co-immunoprecipitation after transient co-expression in N. benthamiana. As to the method: as §1
(§2) Recombinant protein analysis, co-immunoprecipitation and cell-free oligomerization were performed using total protein extracts from the transient expression assay in N. benthamiana as described previously. Interaction analysis of NPR1-HA with TGA3-mRFP or NPR1-GFP (self-interaction), was performed in vivo by transiently co-expressing the two proteins in N. benthamiana followed by treatment with water (mock) or 1 mM SA for 5 h. Total protein was extracted and used for co-immunoprecipitation with anti-RFP or anti-HA beads, respectively. In the NPR1-HA/TGA3-mRFP interaction experiments the npr1-1-HA was used as a negative control. Interaction between GST-NPR1 and Myc-CUL3A was performed by co-expression in E. coli as described. For western blotting under reducing conditions, the SDS sample buffer was added to the protein extracts from a 4× stock solution supplemented with 50 mM DTT and 715 mM B-mercaptoethanol. For western blotting under non-reducing conditions, a DDT-and B-mercaptoethanol-free SDS sample buffer was used. […]

Another data set addresses T3, npr1(A151P/D152R)-HA (Arabidopsis thaliana, UniProt P93002 1-593).
T3 construct: not shown: C-terminal HA tag from vector pLN462
T3 sequence: T1 chain with D49L, D53F, D56V, K83V, A151P, D152R
Described as above. Here is the method:
as §1, §2

In another data set the target is T4, npr1(L281D)-HA (Arabidopsis thaliana, UniProt P93002 1-593).
T4 construct: not shown: C-terminal HA tag from vector pLN462
T4 sequence: T1 chain with D49L, D53F, D56V, K83V, L281D
The description is as above. Here is the method:
as §1, §2

B1: npr1(dim)-GFP (other)
chain: T1 chain
notes: also called L49D/F53D/V56D/V83K; not shown: C-terminal eGFP from vector pK7FWG2
In the case of B1, the binding result with npr1(dim)-HA is “no binding”.

B2: npr1(dim) mutant (L49D/F53D/V56D/V83K) with C-terminal Strep tag, expressed in insect cells (other)
chain: T1 chain
notes: Full-length; His10-GST removed; Monomeric by size exclusion and low-resolution cryo-EM; not shown: C-terminal Strep tag
As for B2, the binding result in data set [1] was “no binding”.

B3: TGA3-mRFP (other, Arabidopsis thaliana, UniProt Q39234 1-384, looked up)
chain: MEMMSSSSSTTQVVSFRDMGMYEPFQQLSGWESPFKSDINNITSNQNNNQSSSTTLEVDARPEADDNNRVNYTSVYNNSLEAEPSSNNDQDEDRINDKMKRRLAQNREAARKSRLRKKAHVQQLEESRLKLSQLEQELVRARQQGLCVRNSSDTSYLGPAGNMNSGIAAFEMEYTHWLEEQNRRVSEIRTALQAHIGDIELKMLVDSCLNHYANLFRMKADAAKADVFFLMSGMWRTSTERFFQWIGGFRPSELLNVVMPYVEPLTDQQLLEVRNLQQSSQQAEEALSQGLDKLQQGLVESIAIQIKVVESVNHGAPMASAMENLQALESFVNQADHLRQQTLQQMSKILTTRQAARGLLALGEYFHRLRALSSLWAARPREHT
notes: Transiently co-expressed in N. benthamiana; pulled down with anti-RFP beads; also called AtTGA3; AT1G22070; not shown: C-terminal mRFP from vector pSITE-4NB
In the case of B3, the binding result in the data set with npr1(L284D)-HA, with npr1(A151P/D152R)-HA and with npr1(L281D)-HA was “no binding” in each case.
